From publication PMC5694352

Columns and labels:
Experiment in all cases: BLI
[1] = molecular target: GlcNAc-IgG3 Fc (human IgG3 Fc with a single GlcNAc at N297) (human)
[2] = molecular target: High mannose (Man8-Man12) glycoform of human IgG3 Fc (human)
[3] = molecular target: Man5-IgG3 Fc (human IgG3 Fc with the GlcNAc2Man5 glycoform) (human)

Work on “Fcγ receptor IIIA, high affinity polymorph (V158)” yielded a Kd [1] of 506 nM, a koff [1] of 0.0858 s⁻¹ and a kon [1] of 170000 M⁻¹ s⁻¹. For the same substance, the Kd [2] was 41.4 nM, the koff [2] was 0.0065 s⁻¹ and the kon [2] was 160000 M⁻¹ s⁻¹. The Kd [3] was 46.5 nM.
